The source of these data is paper PMC9559407, “Enzyme linked oligonucleotide assay for the sensitive detection of SARS-CoV-2 variants”.

The data set has as its target SARS-CoV-2 spike RBD (called RBD S glycoprotein) (SARS-CoV-2 (2019-nCoV), UniProt P0DTC2 319-541). Nature of the data set: direct ELONA. Conditions: protein: commercial; label: 5'-biotin.

B1: CoV2-RBD-1C (ssDNA)
DNA: CAGCACCGACCTTGTGCTTTGGGAGTGCTGGTCCAAGGGCGTTAATGGACA
Regarding B1, the binding result is reported as “binds”.
